Measured values published in paper PMC10377175.

Tests used:
[1] = molecular target: T1, ENOX2 (tNOX) (Homo sapiens) (UniProt Q16206); assay: EMSA; conditions: apparent Kd; 1 nM aptamer, 0-100 nM ENOX2; 0.5 mM MgCl2; EMSA: 0.7% agarose, 0.5x TBE (65 mM Tris, 22.5 mM boric acid, 1.25 mM EDTA, 0.5 mM MgCl2, 0.005% Tween-20, pH 8.3); E-DNA: PBS pH 7.4 (137 mM NaCl, 10 mM …)
T1 sequence: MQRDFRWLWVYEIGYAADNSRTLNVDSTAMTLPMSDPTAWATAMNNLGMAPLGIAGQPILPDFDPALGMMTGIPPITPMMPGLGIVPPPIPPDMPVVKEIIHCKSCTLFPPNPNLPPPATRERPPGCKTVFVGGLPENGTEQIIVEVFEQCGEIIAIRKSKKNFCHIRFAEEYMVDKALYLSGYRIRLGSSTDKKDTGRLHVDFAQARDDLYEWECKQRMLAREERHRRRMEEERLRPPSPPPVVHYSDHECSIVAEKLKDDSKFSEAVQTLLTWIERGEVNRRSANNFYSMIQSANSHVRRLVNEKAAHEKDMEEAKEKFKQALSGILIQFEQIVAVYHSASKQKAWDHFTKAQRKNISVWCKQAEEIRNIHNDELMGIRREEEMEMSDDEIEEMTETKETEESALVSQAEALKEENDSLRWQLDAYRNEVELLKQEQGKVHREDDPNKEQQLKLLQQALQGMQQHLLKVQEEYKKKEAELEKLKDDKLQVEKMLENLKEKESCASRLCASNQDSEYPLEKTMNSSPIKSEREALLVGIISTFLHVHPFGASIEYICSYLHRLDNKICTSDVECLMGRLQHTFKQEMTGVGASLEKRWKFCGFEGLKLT

[2] = molecular target: T1, ENOX2 (tNOX) (Homo sapiens); assay: electrochemical (E-DNA, square wave voltammetry); conditions: apparent Kd; 0.1-200 nM ENOX2; PBS with 1 mM MgCl2; internal methylene blue on thymine T21 (printed after ...CATCTTT); 5' disulfide linker reduced to thiol; EMSA: 0.7% agarose, 0.5x TBE (65 mM Tris, 22.5 mM boric acid, 1.25 mM EDTA, 0.5 mM MgCl2, 0.005% Tween-20, pH 8.3); E-DNA: PBS pH 7.4 (137 mM NaCl, 10 mM …)

Sequence “TTTTTTAGATCCCTGTTCATCTGTCTCGAGTGTTCTTTAATGATCTTTTT [ENOX2-binding aptamer, 5' fluorescein]” has a Kd [1] of 0.4 nM.

Work on “TAAAGATCCCTGTTCATCTTTTCTCGAGTGTTCTTTAGAACAATGAATCTTT [ENOX2 E-DNA biosensor aptamer]” yielded a Kd [2] of 6 nM.
